# Laboratory results taken from patent publication US20260242478A1 (published 2026).
# Where no end group is shown, it is not given here.
# What was measured:
# [1] = target: T1, PSMA Fab; experiment: clonal phage ELISA on biotinylated PSMA Fab captured on neutravidin, anti-M13 HRP detection;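 note: crude clonal phage supernatants added to wells pretreated with PSMA antigen in blocking buffer or with blocking buffer only, then briefly incubated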
# T1 construct: also called Anti-PSMA Fab; 006 PSMA Fab
# Method: (§1) Clonal phage were harvested as crude supernatants and screened via standard ELISAs. […] Prior to the addition of clonal phage. wells were incubated with blocking buffer and PSMA antigen or blocking buffer alone. Without washing or aspirating, clonal phage supernatants were then added to the wells and incubated for a short time. Wells were then washed followed by detection of bound phage using a horse radish conjugated anti-M13 antibody.
# [2] = target: T1, PSMA Fab; experiment: clonal phage ELISA on captured PSMA Fab pre-incubated with PSMA antigen (competitor: PSMA)
# Method: as §1
# [3] = target: T2, PSMA Fab (006 PSMA Fab) (biotinylated (site not stated)); experiment: phage ELISA, clonal phage on biotinylated PSMA Fab captured on neutravidin plate, anti-M13 HRP detection;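 note: crude clonal phage supernatants added to wells preincubated with PSMA antigen in blocking buffer or with blocking buffer only, giving a competition and a no-competitor control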
# T2 construct: also called Anti-PSMA Fab
# [4] = target: T2, PSMA Fab (006 PSMA Fab); experiment: phage ELISA on captured PSMA Fab, wells pre-incubated with PSMA antigen as competitor
# Method: as §1
# [5] = target: T3, PSMA Fab; experiment: phage ELISA; biotinylated PSMA Fab on neutravidin plate, clonal phage supernatant, anti-M13 HRP; no PSMA antigen
# T3 construct: Biotinylated and captured on neutravidin coated plates in the phage ELISA; also called 006 PSMA Fab; Anti-PSMA Fab
# Method: as §1
# [6] = target: T3, PSMA Fab; experiment: phage ELISA; biotinylated PSMA Fab on neutravidin plate, clonal phage supernatant, anti-M13 HRP; wells pre-incubated with PSMA antigen as competitor
# Method: as §1
Binder,"Phage binding ELISA signal, Anti-PSMA Fab [1]","Phage binding ELISA signal, Anti-PSMA Fab with PSMA antigen [2]","Phage binding ELISA signal, Anti-PSMA Fab [3]",phage binding ELISA signal (Anti-PSMA Fab pre-incubated with PSMA antigen) [4],other results
"MEKWCTPSWMCQWM (Peptide-180 library clone, tested as clonal phage supernatant (peptide fused to the pIII filament of the bacteriophage)) [Phage-2348]",1.43,0.0828,,,
"LSNWCVPLWMCEMV (Peptide-180 library clone, tested as clonal phage supernatant (peptide fused to the pIII filament of the bacteriophage)) [Phage-2349]",1.43,0.0796,,,
LVHMCKPAWMCTNL [Phage-2340],,,1.44,0.0708,
VVNWCVPEWMCSGF [Phage-2332],,,1.45,0.0772,
"FDMLCNPKWMCEGF (Peptide-180 library clone, tested as clonal phage supernatant (peptide fused to the pIII filament of the bacteriophage)) [Phage-2345]",1.43,0.0643,,,
EPKWCTPAWMCSIV [Phage-2336],,,1.44,0.0668,
"AERWCIPSWMCELA (Peptide-180 library clone, tested as clonal phage supernatant (peptide fused to the pIII filament of the bacteriophage)) [Phage-2357]",1.42,0.0756,,,
"SEEWCIPPWMCLGR (Peptide-180 library clone, tested as clonal phage supernatant (peptide fused to the pIII filament of the bacteriophage)) [Phage-2353]",1.43,0.0756,,,
"SENWCIPNWMCSGL (Peptide-180 library clone, tested as clonal phage supernatant (peptide fused to the pIII filament of the bacteriophage)) [Phage-2347]",1.43,0.0725,,,
"MDRWCIPEWMCARH (cysteine pairing not given here; also: displayed on bacteriophage by fusion to pIII, Peptide-180 library clone, tested as clonal phage supernatant (peptide fused to the pIII filament of the bacteriophage)) [Phage-2350]",1.43,0.0537,,,
"LTNWCTPQWMCLGF (Peptide-180 library clone, tested as clonal phage (peptide fused to pIII)) [Phage-2423]",,,,,phage binding ELISA signal [5]: 1.33; phage binding ELISA signal [6]: 0.0731
TVKWCIPSWMCQQS [Phage-2333],,,1.44,0.102,
"PMKWCIPEWMCIAS (Peptide-180 library clone, tested as clonal phage supernatant (peptide fused to the pIII filament of the bacteriophage)) [Phage-2351]",1.43,0.102,,,
"WTNTCIPMWMCEGF (Peptide-180 library clone, tested as clonal phage (peptide fused to pIII)) [Phage-2422]",,,,,phage binding ELISA signal [5]: 1.33; phage binding ELISA signal [6]: 0.0808
"NDHWCIPPWMCAPY (cysteine pairing not given here; also: displayed on bacteriophage by fusion to pIII, Peptide-180 library clone, tested as clonal phage supernatant (peptide fused to the pIII filament of the bacteriophage)) [Phage-2354]",1.42,0.0707,,,
GEIWCTPSWMCWGL [Phage-2341],,,1.43,0.0653,
"LMNWCTPAWMCTGF (Peptide-180 library clone, tested as clonal phage supernatant (peptide fused to the pIII filament of the bacteriophage)) [Phage-2344]",1.43,0.0919,,,
"VPKWCTPTWMCIHM (Peptide-180 library clone, tested as clonal phage supernatant (peptide fused to the pIII filament of the bacteriophage)) [Phage-2356]",1.42,0.0649,,,
EFIRCLPPWMCAGF (cysteine pairing not given here; also: displayed on bacteriophage by fusion to pIII) [Phage-2334],,,1.44,0.0734,
SDTWCIPAWMCEGR [Phage-2343],,,1.43,0.0667,
ASNWCIPTWMCEGS [Phage-2335],,,1.44,0.0671,
"FENWCTPSWMCSGF (Peptide-180 library clone, tested as clonal phage supernatant (peptide fused to the pIII filament of the bacteriophage)) [Phage-2355]",1.42,0.0807,,,
MVKLCIPEWMCDRQ [Phage-2337],,,1.44,0.0609,
"WDRLCIPPWMCDVM (Peptide-180 library clone, tested as clonal phage supernatant (peptide fused to the pIII filament of the bacteriophage)) [Phage-2346]",1.43,0.0803,,,
WYKWCTPAWMCEIS [Phage-2338],,,1.44,0.143,
"PVKWCVPPWMCAAT (cysteine pairing not given here; also: displayed on bacteriophage by fusion to pIII, Peptide-180 library clone, tested as clonal phage supernatant (peptide fused to the pIII filament of the bacteriophage)) [Phage-2358]",1.42,0.0663,,,
"IDHWCTPAWMCRGF (Peptide-180 library clone, tested as clonal phage supernatant (peptide fused to the pIII filament of the bacteriophage)) [Phage-2352]",1.43,0.0775,,,
ELMWCIPPWMCEHS [Phage-2342],,,1.43,0.0888,
"EFKWCIPKWMCMVD (Peptide-180 library clone, tested as clonal phage (peptide fused to pIII)) [Phage-2421]",,,,,phage binding ELISA signal [5]: 1.33; phage binding ELISA signal [6]: 0.0948
EGISCVPNWMCVGF [Phage-2339],,,1.44,0.119,
